Consider 30 sequences from the nanobody polyreactivity screen of Harvey et al. (2022).

This data set can be described thus: yeast display, Sf9 membrane polyspecificity reagent, FACS + sequencing; frameworks hold sequencing errors. A digest of the protocol: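 In a synthetic yeast display library (Saccharomyces cerevisiae BJ5465), nanobody expression was induced with galactose for 36–48 hours. FACS gates were set low and high (top ~1%) using anti-HA fluorescence for expression and streptavidin fluorescence for binding of the Sf9 membrane reagent. Each polyreactivity label is drawn from the gate of origin.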
“QVQLVESGGGLVQAGGSLRLSCAASGSIFQGNVMGWYRQAPGKERELVAAIRNSGGTTYYADSVKGRFTISRDNAKNTVYLQMNSLKPEDTAVYYCAARYINRYPKAQPTDRSIYYWGQGTQVTVSS”: the “polyreactivity (PSR sort gate)” value is listed as “high polyreactivity”. As to “QVQLVESGGGLVQAGGSLRLSCAASGSIFQGYAMGWYRQAPGKERELVAAITYSGGRTYYADSVKGRFTISRDNAKNTVYLQMNSLKPEDTAVYYCAALTRRVKKYDYWGQGTQVTVSS”, the “polyreactivity (PSR sort gate)” value is reported as “high polyreactivity”. “QVQLVESGGGLVQAGGSLRLSCAASGSIFQGYAMGWYRQAPGKERELVAGITSSGGRTRYADSVKGRFTISRDNAKNTVFLQMNSLKPEDTAVYYCAADYVRHIGYNYWGQGTQVTVSS”: the “polyreactivity (PSR sort gate)” value was “high polyreactivity”. Then “QVQLVESGGGLVQAGGSLRLSCAASGSIFQGYSMGWYRQAPGKERELVAAITASGGSTYYADSVKGRFTISRDNAKNTVYLQMNSLKPEDTAVYYCATDSYWRQDLYRYEYWGQGTQVTVSS”, with “high polyreactivity”; and “QVQLVESGGGLVQAGGSLRLSCAASGSIFQIYAMGWYRPAPGKERELVAAINSGGITKYADSVKGRFTISRDNAKNTVYLQMNSLKPEDTAVYYCAKRYGWPYGRFDYWGQGTQVTVSS”, with “low polyreactivity”. Turning to “QVQLVESGGGLVQAGGSLRLSCAASGSIFQPNAMGWYRQAPGKERELVASIRGRGGDTYYADSVKGRFTISRDTAKNTVYLQMNSLKPEDTAVYYCAADYRWGQGTQVTVSS”, the “polyreactivity (PSR sort gate)” value is “low polyreactivity”. In the case of “QVQLVESGGGLVQAGGSLRLSCAASGSIFQWYAMGWYRQAPGKERELVAAISWDGDSTYYADSVKGRFTISRDNAKNTVYLQMNSMNPEDTAVYYCAADYEWEYEYWGQGTQVTVSS”, the “polyreactivity (PSR sort gate)” value is “high polyreactivity”. On to “QVQLVESGGGLVQAGGSLRLSCAASGSIFQYYPMGWYRQAPGKERELVAAINSGGRTNYADSVKGRFTISRDNAKNTVYLQMNSLKPEDTAVYYCAKRLSTRASFGEEDSWGQGTQVTVSS”, for which the “polyreactivity (PSR sort gate)” value is given as “low polyreactivity”.

As to “QVQLVESGGGLVQAGGSLRLSCAASGSIFRAYAMGWYRQAPGKERELVAAISWGGGSTSYADSVKGRFTLSRDNAKNTVYLQMNSLNPEDTAVYYCNKVSLSKRRDYYWGQGTQVTVSS”, the “polyreactivity (PSR sort gate)” value is “high polyreactivity”. “QVQLVESGGGLVQAGGSLRLSCAASGSIFRAYAMGWYRQAPGKERELVAAITWSGGRTFYADSVKGRFTISRDNAKNTVYLQMNSLKPEDTAVYYCAAFVYQRGRIYDYWGQGTQVTVSS”: the “polyreactivity (PSR sort gate)” value was “high polyreactivity”. The value for “QVQLVESGGGLVQAGGSLRLSCAASGSIFRAYAMGWYRQAPGKERELVAGITKSGGSTYYADSVKGRFTISRDHAKNTVYLQMNSLKPEDTAVYYCAAYRSRTYGYWGQGTQVTVSS” was “high polyreactivity”. In the case of “QVQLVESGGGLVQAGGSLRLSCAASGSIFRDYVMGWYRQAPGKERELVAAISGNDGSTYYADSVKGRFTISRDNAKNTVYLQLNSLKPEDTAVYYCNADEASTFPQFYSYLDFDYWGQGTQVTVSS”, the “polyreactivity (PSR sort gate)” value is “low polyreactivity”.

Take “QVQLVESGGGLVQAGGSLRLSCAASGSIFRFYAMGWYIQAPGKERELVAGITWSGASTYYADSVKGRFTISRDNAKNTVYLQMNSLKPEDNAVYYCSAKSLIVRYDSWGQGTQVTVSS”: the “polyreactivity (PSR sort gate)” value is “high polyreactivity”. For “QVQLVESGGGLVQAGGSLRLSCAASGSIFRFYTMGWYRQAPGKERELVASITWTGGSTYYADSVKGRFTISRDNAKNTVYLQMNSLKPEDTAVYYCAARRYRRLVGRYDYWGQGTQVTVSS”, the “polyreactivity (PSR sort gate)” value is “low polyreactivity”.

As for “QVQLVESGGGLVQAGGSLRLSCAASGSIFRFYVMGWYRQAPGKEREMVAAISIGGSTNYADSVKGRFTISLDNAKNTVFLQMNSLKPEDTAVYYCAADYWYGAGMPHGTEFDYWGQGTQVTVSS”, the “polyreactivity (PSR sort gate)” value is “low polyreactivity”. Then “QVQLVESGGGLVQAGGSLRLSCAASGSIFRGNAMGWYRQAPGKERELDATISNGGSTNYADAVKGRFTISRDNAKNTVYLQMNSLKPEDTAVYYCAKPLYKTWWGYAYDYWGQGTQVTVSS”, with “high polyreactivity”. As to “QVQLVESGGGLVQAGGSLRLSCAASGSIFRGNAMGWYRQAPGKERELVAGINRAGSTKYADSVKGRFTISRDNAKNTVYLLMNSLKPEETAVYYCAARGYSSEYDYWGKGTQVTVSS”, the “polyreactivity (PSR sort gate)” value is listed as “high polyreactivity”.

Take “QVQLVESGGGLVQAGGSLRLSCAASGSIFRGNAMGWYRQAPGKERELVAVITWSGGSTYYADSVKGRFTISRDNAKNTVYLQMNSLKPEDTAVYYCNAARKQRVYFAGDYWGQGTQVTVSS”: the “polyreactivity (PSR sort gate)” value is “high polyreactivity”. As to “QVQLVESGGGLVQAGGSLRLSCAASGSIFRGNGMGWYRQAPGKERELVAAISRSGGRTYYADSVKGRFTISRDNAKNTVYLQMNSLKPEDTAVYYCNAARTYQYDYWGQGTQVTVSS”, the “polyreactivity (PSR sort gate)” value is “high polyreactivity”. The value for “QVQLVESGGGLVQAGGSLRLSCAASGSIFRGYAMGCYRQAPGKERELVAAITSGGSTNYADSVKGRFTISRDNAKNTVYLQMNSLKPEDTAVYYCAKDLALVAPLSDYWGQGTQVTVSS” was “low polyreactivity”; that for “QVQLVESGGGLVQAGGSLRLSCAASGSIFRGYAMGWYRQAPGKERELVAAINTSGGRTYYADSVKGRFTISRDNAKNTVYLQMNSLKPEDTAVYYCATEYYQAKREDYWGQGTQVTVSS” was “high polyreactivity”.

Take “QVQLVESGGGLVQAGGSLRLSCAASGSIFRGYAMGWYRQAPGKERELVAAISIGGRTYYADSVKGRFTISRDNAKNTVYLQMNSLKPEDTAVYYCAVQKPKTGKGKKDTYGRDGYWGQGTQVTVSS”: the “polyreactivity (PSR sort gate)” value is recorded as “high polyreactivity”. Regarding “QVQLVESGGGLVQAGGSLRLSCAASGSIFRGYAMGWYRQAPGKGRELVAAISWSGASTYYADSVKGRFTISRDNAKNTVYLQMNSLKPEDTAVYYCAAVQWTGYPFDYWGQGTQVTVSS”, the “polyreactivity (PSR sort gate)” value was “high polyreactivity”. Consider “QVQLVESGGGLVQAGGSLRLSCAASGSIFRGYDMGWYRQPPGKERELVAAISRSGGITYYADSVKGRFTISRDNAKNTVYLNMNSLKPEVTAVYYCAASRAGGYYGKGYSWGQGTQVTVSS”, for which the “polyreactivity (PSR sort gate)” value is listed as “high polyreactivity”. The value for “QVQLVESGGGLVQAGGSLRLSCAASGSIFRGYGMGWYRQAPGKERELVAAITSGDSTNYADSVKARFTLSRDNAKTTVYLQMNSLKPEDTAVNYCAAASTGRPSVSYDYWGQGTQVTVSS” was “low polyreactivity”; that for “QVQLVESGGGLVQAGGSLRLSCAASGSIFRGYSMGWYRQAPGKERELVAAINTSGGRTYYADSVKGRFTISRDNAKNTVYLQMNSLKPEDTAVFYCATEYYQAKREDYWGQGTQVTVSS” was “high polyreactivity”. Regarding “QVQLVESGGGLVQAGGSLRLSCAASGSIFRGYTLGWYRQAPGKERELVAAISTRGGSTYYADSVKGRFTISRDNANNTVYLQMNSLKPEDTAVYYCNARSRGRASGYDYWGQVTQVTVSS”, the “polyreactivity (PSR sort gate)” value is reported as “high polyreactivity”.

On to “QVQLVESGGGLVQAGGSLRLSCAASGSIFRINAMGWYRQAPGKERELVAAITRSGGSTFYADSVKGRFTISRDNAKNTVYLQMNSLKPEDTAVYYCAAVWYYSTVPARYEYWGQGTQVTVSS”, for which the “polyreactivity (PSR sort gate)” value was “low polyreactivity”. For “QVQLVESGGGLVQAGGSLRLSCAASGSIFRIYAKGWYRQAPGKERELVAAISSTGSTSYADSVKGRFTISRDNAKNTVYLQMNSLKPEDTAVYYCAAGVYALRRDYWVQGTQVTVSS”, the “polyreactivity (PSR sort gate)” value was “low polyreactivity”. “QVQLVESGGGLVQAGGSLRLSCAASGSIFRIYAMGWYRPAPGKERELVAAISRGGGSTYYADSVKGRFTISRDNAKNTVYLQMNSLKPEDTAVYYCAARSPYRYYYWGQGTQVTVSS”: the “polyreactivity (PSR sort gate)” value is on record as “high polyreactivity”.
